In test [1] the target is BMP-9 receptors expressed on HepG2 cells (ATCC HB8065). The experiment in a line: Scatchard analysis; 2 ng/ml 125I-BMP-9 displaced by unlabelled BMP-9 on HepG2 cells, 20 hours at 4 C.
Test [2] has the same target. The experiment in a line: 125I-BMP-9 binding to HepG2 cells.
The target is the same in test [3]. The experiment in a line: Scatchard analysis of 125I-BMP-9 binding to HepG2 cells.
Test [4] has the same target.
The target is the same in test [5]. The experiment in a line: 125I-BMP-9 binding to HepG2 cells; the Kd told again in ng/ml.

B1: recombinant human BMP-9, CHO-derived (mature region of human BMP-9 expressed from the murine/human BMP-9 fusion plasmid) (ligand)
chain: TRECSRSCPRTAPQRQVRAVTRRTRMAHVAAGSTLARRKRSAGAGSHCQKTSLRVNFEDIGWDSWIIAPKEYEAYECKGGCFFPLADDVTPTKHAIVQTLVHLKFPTKVG
modifications: iodinated (125I) where used as the tracer; unlabelled where used as the competitor or in the proliferation assay
Consider B1, for which the Kd in test [1] was 0.3 nM; in test [2], 0.27 nM; in test [5], 8 ng/mL. In test [3], this molecule yielded a high affinity receptors per cell (receptors per cell) of 10000. Moreover, the 3H-thymidine incorporation in HepG2 cells in test [4] turned out to be 5 fold. This molecule gave an ED50 of 3H-thymidine incorporation in HepG2 cells in test [4] of 10 ng/mL.

The values are drawn from US6034061.
